Results taken from patent publication WO2000069914A2.

Target: recombinant Epithelial Glycoprotein-2 (EGP-2), baculovirus-expressed, purified (human) (UniProt P16422)
Assay: SPR (BIAcore), scFv over amine-coupled recombinant EGP-2

UniProt P16422, sequence (P16422 24-265 limits assumed): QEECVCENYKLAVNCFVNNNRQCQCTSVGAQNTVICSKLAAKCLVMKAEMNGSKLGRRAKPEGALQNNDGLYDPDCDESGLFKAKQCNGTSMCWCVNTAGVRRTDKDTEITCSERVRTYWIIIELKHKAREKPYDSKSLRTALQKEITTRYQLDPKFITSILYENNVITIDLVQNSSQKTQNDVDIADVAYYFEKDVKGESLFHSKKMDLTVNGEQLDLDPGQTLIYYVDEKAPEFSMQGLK

koff: 0.00034 s⁻¹
Substance: scFv MOC-31
